# Test results: publication PMC3462793, “Erioflorin Stabilizes the Tumor Suppressor Pdcd4 by Inhibiting Its Interaction with the E3-ligase β-TrCP1” (PLoS ONE, 2012)
# T1: Programmed cell death 4 (Pdcd4), endogenous in HEK293 cells (human (endogenous in HEK293), UniProt Q53EL6 1-469)
# T1 sequence (looked up): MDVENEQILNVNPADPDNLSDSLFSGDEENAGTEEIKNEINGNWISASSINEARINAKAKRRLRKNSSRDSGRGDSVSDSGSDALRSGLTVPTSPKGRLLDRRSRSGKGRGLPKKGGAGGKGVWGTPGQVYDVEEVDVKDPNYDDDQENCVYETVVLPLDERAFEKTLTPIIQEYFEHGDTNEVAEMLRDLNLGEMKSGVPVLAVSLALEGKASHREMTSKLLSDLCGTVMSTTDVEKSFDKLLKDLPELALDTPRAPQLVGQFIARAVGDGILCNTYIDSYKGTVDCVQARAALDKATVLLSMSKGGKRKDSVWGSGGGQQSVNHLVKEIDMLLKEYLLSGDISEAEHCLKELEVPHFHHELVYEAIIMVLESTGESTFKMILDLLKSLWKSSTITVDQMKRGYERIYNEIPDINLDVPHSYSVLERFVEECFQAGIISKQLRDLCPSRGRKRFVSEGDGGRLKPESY
# Biological target: T1, Programmed cell death 4 (Pdcd4), …
# Assay: cell-based or functional assay
binder,measurement,value
"β-transducin repeat-containing protein 1 (β-TrCP1), overexpressed in HEK293 cells (natural protein, UniProt Q9Y297 1-605, looked up) MDPAEAVLQEKALKFMCSMPRSLWLGCSSLADSMPSLRCLYNPGTGALTAFQNSSEREDCNNGEPPRKIIPEKNSLRQTYNSCARLCLNQETVCLASTAMKTENCVAKTKLANGTSSMIVPKQRKLSASYEKEKELCVKYFEQWSESDQVEFVEHLISQMCHYQHGHINSYLKPMLQRDFITALPARGLDHIAENILSYLDAKSLCAAELVCKEWYRVTSDGMLWKKLIERMVRTDSLWRGLAERRGWGQYLFKNKPPDGNAPPNSFYRALYPKIIQDIETIESNWRCGRHSLQRIHCRSETSKGVYCLQYDDQKIVSGLRDNTIKIWDKNTLECKRILTGHTGSVLCLQYDERVIITGSSDSTVRVWDVNTGEMLNTLIHHCEAVLHLRFNNGMMVTCSKDRSIAVWDMASPTDITLRRVLVGHRAAVNVVDFDDKYIVSASGDRTIKVWNTSTCEFVRTLNGHKRGIACLQYRDRLVVSGSSDNTIRLWDIECGACLRVLEGHEELVRCIRFDNKRIVSGAYDGKIKVWDLVAALDPRAPAGTLCLRTLVEHSGRVFRLQFDEFQIVSSSHDDTILIWDFLNDPAAQAEPPRSPSRTYTYISR","endogenous Pdcd4 protein level (western densitometry, relative to the DMSO control) in HEK293 cells treated 8 h with TPA (10 nM) and erioflorin (0.625–5 µM)",121 % of DMSO control
